# According to IntAct's records for PubMed 31515488:
# B1: Ornithine decarboxylase antizyme 3 (Homo sapiens), Q9UMX2 (parent)
# chain: MPCKRCRPSVYSLSYIKRGKTRNYLYPIWSPYAYYLYCYKYRITLREKMLPRCYKSITYKEEEDLTLQPRSCLQCSESLVGLQEGKSTEQGNHDQLKELYSAGNLTVLATDPLLHQDPVQLDFHFRLTSQTSAHWHGLLCDRRLFLDIPYQALDQGNRESLTATLEYVEEKTNVDSVFVNFQNDRNDRGALLRAFSYMGFEVVRPDHPALPPLDNVIFMVYPLERDVGHLPSEPP
# partner: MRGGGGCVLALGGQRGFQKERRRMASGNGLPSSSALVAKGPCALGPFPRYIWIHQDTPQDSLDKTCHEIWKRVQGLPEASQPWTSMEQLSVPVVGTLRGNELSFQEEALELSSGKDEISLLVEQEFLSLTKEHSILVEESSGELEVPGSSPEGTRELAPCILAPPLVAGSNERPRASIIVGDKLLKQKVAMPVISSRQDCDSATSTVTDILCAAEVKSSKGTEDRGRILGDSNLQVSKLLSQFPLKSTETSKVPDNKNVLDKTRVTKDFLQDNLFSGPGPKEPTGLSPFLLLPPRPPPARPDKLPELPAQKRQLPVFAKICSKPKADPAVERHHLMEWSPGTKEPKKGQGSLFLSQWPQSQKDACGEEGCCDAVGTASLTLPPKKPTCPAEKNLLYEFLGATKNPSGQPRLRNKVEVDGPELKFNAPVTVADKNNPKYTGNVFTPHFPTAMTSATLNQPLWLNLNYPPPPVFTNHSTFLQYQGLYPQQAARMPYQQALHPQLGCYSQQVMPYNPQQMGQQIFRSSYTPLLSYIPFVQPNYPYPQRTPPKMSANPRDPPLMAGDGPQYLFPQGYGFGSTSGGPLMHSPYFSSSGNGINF
# B2: WASH complex subunit 3 (Homo sapiens), Q9Y3C0 (parent)
# chain: MDEDGLPLMGSGIDLTKVPAIQQKRTVAFLNQFVVHTVQFLNRFSTVCEEKLADLSLRIQQIETTLNILDAKLSSIPGLDDVTVEVSPLNVTSVTNGAHPEATSEQPQQNSTQDSGLQESEVSAENILTVAKDPRYARYLKMVQVGVPVMAIRNKMISEGLDPDLLERPDAPVPDGESEKTVEESSDSESSFSD
# partner: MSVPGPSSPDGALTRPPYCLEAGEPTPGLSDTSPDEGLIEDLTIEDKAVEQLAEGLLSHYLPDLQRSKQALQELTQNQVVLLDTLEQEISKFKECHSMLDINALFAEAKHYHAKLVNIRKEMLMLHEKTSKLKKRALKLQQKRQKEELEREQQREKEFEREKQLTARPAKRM
# B3: Hyaluronan mediated motility receptor (Homo sapiens), O75330 (parent)
# chain: MSFPKAPLKRFNDPSGCAPSPGAYDVKTLEVLKGPVSFQKSQRFKQQKESKQNLNVDKDTTLPASARKVKSSESKESQKNDKDLKILEKEIRVLLQERGAQDRRIQDLETELEKMEARLNAALREKTSLSANNATLEKQLIELTRTNELLKSKFSENGNQKNLRILSLELMKLRNKRETKMRGMMAKQEGMEMKLQVTQRSLEESQGKIAQLEGKLVSIEKEKIDEKSETEKLLEYIEEISCASDQVEKYKLDIAQLEENLKEKNDEILSLKQSLEENIVILSKQVEDLNVKCQLLEKEKEDHVNRNREHNENLNAEMQNLKQKFILEQQEREKLQQKELQIDSLLQQEKELSSSLHQKLCSFQEEMVKEKNLFEEELKQTLDELDKLQQKEEQAERLVKQLEEEAKSRAEELKLLEEKLKGKEAELEKSSAAHTQATLLLQEKYDSMVQSLEDVTAQFESYKALTASEIEDLKLENSSLQEKAAKAGKNAEDVQHQILATESSNQEYVRMLLDLQTKSALKETEIKEITVSFLQKITDLQNQLKQQEEDFRKQLEDEEGRKAEKENTTAELTEEINKWRLLYEELYNKTKPFQLQLDAFEVEKQALLNEHGAAQEQLNKIRDSYAKLLGHQNLKQKIKHVVKLKDENSQLKSEVSKLRCQLAKKKQSETKLQEELNKVLGIKHFDPSKAFHHESKENFALKTPLKEGNTNCYRAPMECQESWK
# B4: Caspase recruitment domain-containing protein 9 (Homo sapiens), Q9H257 (parent)
# chain: MSDYENDDECWSVLEGFRVTLTSVIDPSRITPYLRQCKVLNPDDEEQVLSDPNLVIRKRKVGVLLDILQRTGHKGYVAFLESLELYYPQLYKKVTGKEPARVFSMIIDASGESGLTQLLMTEVMKLQKKVQDLTALLSSKDDFIKELRVKDSLLRKHQERVQRLKEECEAGSRELKRCKEENYDLAMRLAHQSEEKGAALMRNRDLQLEIDQLKHSLMKAEDDCKVERKHTLKLRHAMEQRPSQELLWELQQEKALLQARVQELEASVQEGKLDRSSPYIQVLEEDWRQALRDHQEQANTIFSLRKDLRQGEARRLRCMEEKEMFELQCLALRKDSKMYKDRIEAILLQMEEVAIERDQAIATREELHAQHARGLQEKDALRKQVRELGEKADELQLQVFQCEAQLLAVEGRLRRQQLETLVLSSDLEDGSPRRSQELSLPQDLEDTQLSDKGCLAGGGSPKQPFAALHQEQVLRNPHDAGLSSGEPPEKERRRLKESFENYRRKRALRKMQKGWRQGEEDRENTTGSDNTDTEGS
# partner: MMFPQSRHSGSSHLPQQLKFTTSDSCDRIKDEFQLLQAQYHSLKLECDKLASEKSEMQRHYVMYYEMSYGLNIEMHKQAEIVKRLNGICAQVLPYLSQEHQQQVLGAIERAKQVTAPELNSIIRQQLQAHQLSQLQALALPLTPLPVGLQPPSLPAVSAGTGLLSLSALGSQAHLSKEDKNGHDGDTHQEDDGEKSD
# B5: Docking protein 2 (Homo sapiens), O60496 (parent)
# chain: MGDGAVKQGFLYLQQQQTFGKKWRRFGASLYGGSDCALARLELQEGPEKPRRCEAARKVIRLSDCLRVAEAGGEASSPRDTSAFFLETKERLYLLAAPAAERGDWVQAICLLAFPGQRKELSGPEGKQSRPCMEENELYSSAVTVGPHKEFAVTMRPTEASERCHLRGSYTLRAGESALELWGGPEPGTQLYDWPYRFLRRFGRDKVTFSFEAGRRCVSGEGNFEFETRQGNEIFLALEEAISAQKNAAPATPQPQPATIPASLPRPDSPYSRPHDSLPPPSPTTPVPAPRPRGQEGEYAVPFDAVARSLGKNFRGILAVPPQLLADPLYDSIEETLPPRPDHIYDEPEGVAALSLYDSPQEPRGEAWRRQATADRDPAGLQHVQPAGQDFSASGWQPGTEYDNVVLKKGPK
# partner: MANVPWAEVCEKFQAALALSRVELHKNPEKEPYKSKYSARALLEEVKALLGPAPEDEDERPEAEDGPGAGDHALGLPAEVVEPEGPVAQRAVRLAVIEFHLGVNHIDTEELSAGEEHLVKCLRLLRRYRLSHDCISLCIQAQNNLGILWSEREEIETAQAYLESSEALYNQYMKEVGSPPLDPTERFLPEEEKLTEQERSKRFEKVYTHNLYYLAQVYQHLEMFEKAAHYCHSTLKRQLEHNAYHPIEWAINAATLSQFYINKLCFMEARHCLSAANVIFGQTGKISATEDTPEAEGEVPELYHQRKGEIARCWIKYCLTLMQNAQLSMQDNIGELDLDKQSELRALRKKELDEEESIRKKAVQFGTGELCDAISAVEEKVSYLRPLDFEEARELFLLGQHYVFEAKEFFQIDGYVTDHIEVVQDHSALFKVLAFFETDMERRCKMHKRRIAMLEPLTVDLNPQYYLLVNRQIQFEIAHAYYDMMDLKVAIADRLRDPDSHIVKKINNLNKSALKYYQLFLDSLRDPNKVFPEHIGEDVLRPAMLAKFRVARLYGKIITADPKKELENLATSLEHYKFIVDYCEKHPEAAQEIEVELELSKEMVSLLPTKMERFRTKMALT
# B6: Phosphatidylserine lipase ABHD16A (Homo sapiens), O95870 (parent)
# chain: MAKLLSCVLGPRLYKIYRERDSERAPASVPETPTAVTAPHSSSWDTYYQPRALEKHADSILALASVFWSISYYSSPFAFFYLYRKGYLSLSKVVPFSHYAGTLLLLLAGVACLRGIGRWTNPQYRQFITILEATHRNQSSENKRQLANYNFDFRSWPVDFHWEEPSSRKESRGGPSRRGVALLRPEPLHRGTADTLLNRVKKLPCQITSYLVAHTLGRRMLYPGSVYLLQKALMPVLLQGQARLVEECNGRRAKLLACDGNEIDTMFVDRRGTAEPQGQKLVICCEGNAGFYEVGCVSTPLEAGYSVLGWNHPGFAGSTGVPFPQNEANAMDVVVQFAIHRLGFQPQDIIIYAWSIGGFTATWAAMSYPDVSAMILDASFDDLVPLALKVMPDSWRGLVTRTVRQHLNLNNAEQLCRYQGPVLLIRRTKDEIITTTVPEDIMSNRGNDLLLKLLQHRYPRVMAEEGLRVVRQWLEASSQLEEASIYSRWEVEEDWCLSVLRSYQAEHGPDFPWSVGEDMSADGRRQLALFLARKHLHNFEATHCTPLPAQNFQMPWHL
# partner: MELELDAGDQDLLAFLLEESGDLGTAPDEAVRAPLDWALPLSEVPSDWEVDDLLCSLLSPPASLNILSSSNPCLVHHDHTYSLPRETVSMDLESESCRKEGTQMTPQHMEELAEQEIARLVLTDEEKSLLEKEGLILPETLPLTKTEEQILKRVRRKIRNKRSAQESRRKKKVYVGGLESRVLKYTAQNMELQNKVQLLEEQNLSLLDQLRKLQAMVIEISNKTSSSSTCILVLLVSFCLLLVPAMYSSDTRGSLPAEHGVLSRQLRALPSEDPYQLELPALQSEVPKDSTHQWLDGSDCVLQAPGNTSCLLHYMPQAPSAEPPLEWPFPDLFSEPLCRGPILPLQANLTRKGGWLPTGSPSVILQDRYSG
# B7: Fibronectin type III and SPRY domain-containing protein 2 (Homo sapiens), A1L4K1 (parent)
# chain: MEEESGEELGLDRSTPKDFHFYHMDLYDSEDRLHLFPEENTRMRKVVQAEMANESRGAGDGKAQRDLQEEVDELVHLYGLEDDHELGDEFVDENIPRTGVSEYPPYMMKRRDPAREQRDWRLSGEAAEAEDLGFGGWGSAGQCQDLREAYRYTHGRASEEYECYVIPEEEDEEEAADVFCVTCKTPIRAFQKVFDEHKEHEVIPLNEALESAKDEIHKNMYKLEKQIIEMENFANHLEEVFITVEENFGKQEQNFESHYNEILETLAQKYEEKIQALGEKKKEKLEALYGQLVSCGENLDTCKELMETIEEMCHEEKVDFIKDAVAMADRLGKFLKTKTDVEISAQPEFEDQTLDFSDVEQLMGSINTIPAPSAPVINPQVPNSATGSSVRVCWSLYSDDTVESYQLSYRPVQDSSPGTDQAEFTVTVKETYCSVTNLVPNTQYEFWVTAHNRAGPSPSSERAVYMTAPSPPIIKTKEIRSCEEAVLICWESGNLNPVDSYTVELTQAESPEASGVTESVVGIPTCESVVQLQPGRSYIIYVRALNMGGPSVRSEPATVHTIGSYFRLNKDTCHPWLTISEDGLTAVRSERRTPARELSPSDTHFTRCVAVMGNLIPVRGHHYWEVEVDEHLDYRVGVAFADVRKQEDLGANCLSWCMRHTFASSRHKYEFLHNRTTPDIRITVPPKKIGILLDYEHSKLSFFNVDLSQHLYTFSCQLHEFVHPCFSLEKPGCLKVHNGISMPKHVTFY
# B8: Keratin-associated protein 12-2 (Homo sapiens), P59991 (parent)
# chain: MCHTSCSSGCQPACCAPSPCQPACCVPSSCQASCCVPVGCQSSVCVPVSFKPAVCLPVSCQSSVCVPMSFKSAVCVPVSCQSSVCVPVSCRPIVCAAPSCQSSLCVPVSCRPVVYAAPSCQSSGCCQPSCTSVLCRPISYSISSCC
# partner: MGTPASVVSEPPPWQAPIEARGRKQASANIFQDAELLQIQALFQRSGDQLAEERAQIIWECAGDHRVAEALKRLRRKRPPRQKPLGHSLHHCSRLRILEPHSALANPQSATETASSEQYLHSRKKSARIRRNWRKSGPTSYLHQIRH
# Variants of: B1
# Conditions: with ca094_human C1orf94, Q6P1W5
row,Variant,effect of a mutation on the interaction
1,R193Q,with no effect

# Variants of: B2
# Conditions: with bl1s6_human BLOC1S6, Q9UL45
row,Variant,effect of a mutation on the interaction
1,F44L,with no effect

# Variants of: B3
# Conditions: with morn4_human MORN4, Q8NDC4
# morn4_human MORN4, Q8NDC4, sequence (Q8NDC4 whole entry): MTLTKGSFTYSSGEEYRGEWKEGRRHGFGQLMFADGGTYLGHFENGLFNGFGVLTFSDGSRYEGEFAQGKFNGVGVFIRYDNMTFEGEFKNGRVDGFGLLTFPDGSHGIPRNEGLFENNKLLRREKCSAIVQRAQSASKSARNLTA
row,Variant,effect of a mutation on the interaction
1,S468G,with no effect
2,V368A,with no effect

# Variants of: B4
# Conditions: with tle5_human TLE5, Q08117
row,Variant,effect of a mutation on the interaction
1,R173H,with no effect

# Variants of: B5
# Conditions: with kbp_human KIFBP
row,Variant,effect of a mutation on the interaction
1,P274L,disrupting interaction strength

# Variants of: B6
# Conditions: with creb3_human CREB3, O43889
row,Variant,effect of a mutation on the interaction
1,R184L,with no effect

# Variants of: B7
# Conditions: with cor1a_human CORO1A
row,Variant,effect of a mutation on the interaction
1,E720K,with no effect
2,K333T,with no effect

# Variants of: B8
# Conditions: with avpi1_human AVPI1, Q5T686
row,Variant,effect of a mutation on the interaction
1,A16T,with no effect
2,S143P,with no effect
